Earlier results in PMC5803488.
Like-named read-outs stand apart in the source and are kept apart here.

Tests used:
ubiquitin [1] = target: ubiquitin (UniProt P0CG48)
ubiquitin [2] = target: ubiquitin (UniProt P0CG48); remark: listed apart in the source

Vps36 (Eap45) GLUE, sequence (Q86VN1 1-138): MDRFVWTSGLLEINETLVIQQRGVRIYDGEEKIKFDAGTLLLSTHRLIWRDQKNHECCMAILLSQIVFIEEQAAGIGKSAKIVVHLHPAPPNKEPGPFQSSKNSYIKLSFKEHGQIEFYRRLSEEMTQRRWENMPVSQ
Tsg101 UEV, sequence (Q99816 1-148): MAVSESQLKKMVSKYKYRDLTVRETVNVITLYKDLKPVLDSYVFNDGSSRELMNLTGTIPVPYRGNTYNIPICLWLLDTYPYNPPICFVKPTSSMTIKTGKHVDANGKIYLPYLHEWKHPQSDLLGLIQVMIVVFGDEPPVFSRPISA

| Kd (ubiquitin [1]) [µM] | Kd (ubiquitin [2]) [µM] | Substance |
| --- | --- | --- |
| 510 | – | Tsg101 UEV (from UniProt Q99816) |
| – | 330 | Vps36 (Eap45) GLUE (from UniProt Q86VN1) |
